Measurements published in US20260242478A1 (published 2026).
Where no end group is shown, it is not given here.

How the values were obtained:
[1] = biological target: anti-CD28 scFv (VH - linker 1 - VL) (biotinylated (site not stated)); assay: same phage ELISA, wells pre-incubated with soluble CD28 (competitor)
[2] = biological target: T1, Anti-CD28 scFv (VH - linker 1 - VL) (biotinylated (site not given)); assay: phage binding ELISA; biotinylated anti-CD28 scFv on neutravidin plate, bound phage detected with anti-M13-HRP
T1 sequence (scFv, as listed by the source): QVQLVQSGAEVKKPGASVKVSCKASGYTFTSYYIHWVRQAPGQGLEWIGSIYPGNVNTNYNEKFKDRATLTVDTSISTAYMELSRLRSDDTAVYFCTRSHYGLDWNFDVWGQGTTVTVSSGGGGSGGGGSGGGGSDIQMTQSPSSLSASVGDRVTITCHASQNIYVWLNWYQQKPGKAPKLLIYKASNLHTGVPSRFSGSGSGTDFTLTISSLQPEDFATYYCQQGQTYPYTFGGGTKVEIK

[3] = biological target: T1, Anti-CD28 scFv (VH - linker 1 - VL); assay: phage binding ELISA on anti-CD28 scFv plate; wells pre-incubated with soluble CD28 as competitor;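 also: clonal phage supernatants tested, bound phage read out with an HRP-linked anti-M13 antibody, reference wells received blocking buffer lacking CD28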
Protocol: Clonal phage were harvested as crude supernatants and screened via standard enzyme linked immunosorbent assays (ELISAs). […] Prior to the addition of clonal phage, wells were incubated with blocking buffer and CD28 soluble protein or blocking buffer alone. Without washing or aspirating, clonal phage supernatants were then added to the wells and incubated for a short time. Wells were then washed followed by detection of bound phage using a horse radish peroxidase conjugated anti-M13 antibody.

[4] = biological target: T2, Anti-CD28 scFv (VH - linker 1 - VL) (biotinylated (site not stated)); assay: phage ELISA; biotinylated anti-CD28 scFv on neutravidin plate, clonal phage supernatant, anti-M13-HRP;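 also: before the phage were added, wells were pre-incubated with soluble CD28 protein in blocking buffer, or with blocking buffer alone, and were not washed in between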
T2 construct: Biotinylated scFv captured on neutravidin coated plates in the panning ELISA
T2 sequence (scFv, as listed by the source): as above

[5] = biological target: T2, Anti-CD28 scFv (VH - linker 1 - VL); assay: phage ELISA as above, wells pre-incubated with soluble CD28 (competitor);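 also: ELISA of crude clonal phage supernatants added to wells pre-treated with soluble CD28 in blocking buffer, bound phage read out with HRP-conjugated anti-M13 antibody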
[6] = biological target: T3, Anti-CD28 scFv (VH - linker 1 - VL) (biotinylated (site not stated)); assay: phage ELISA; biotinylated anti-CD28 scFv on neutravidin plate, clonal phage supernatant, anti-M13-HRP detection;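 also: before phage addition, wells were pretreated with soluble CD28 protein in blocking buffer, or with blocking buffer only as the comparison, then phage were added without washing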
T3 construct: Biotinylated and captured on neutravidin-coated plates in the phage panning ELISA
T3 sequence (scFv, as listed by the source): as above

Sequence of anti-CD28 scFv (VH - linker 1 - VL) (biotinylated (site not stated)) (scFv, as listed by the source): as above

B1: Phage-32 (peptide, not shown: large carriers)
peptide: MDWCPRDMWSVCFS
modifications: cysteine pairing not given here; also: fused to phage pIII, linker not given here
notes: Clonal phage supernatant; the listing entry decides
With B1 the “CD28 scFv signal in presence of CD28” value [1] was 0.207.

B2: Phage-251 (peptide)
peptide: MDWCPRFMWSECFS
modifications: cysteine pairing not given here; also: fused to phage pIII, linker and fusion site not given here
notes: Clonal phage of the Peptide-9 library, tested as crude phage supernatant; not shown: pIII of the bacteriophage
In the case of B2, the “CD28 scFv signal” value [2] is reported as 1.01 and the “CD28 scFv signal in presence of CD28” value [3] is reported as 0.137.

B3: Phage-252 (peptide)
peptide: MDWCPRHMWINCFA
modifications: cysteine pairing not given here; also: fused to phage pIII, linker and fusion site not given here
notes: as for B2
B3 was tested, and the “CD28 scFv signal” value [2] was 0.92 and the “CD28 scFv signal in presence of CD28” value [3] was 0.165.

B4: Phage-253 (peptide)
peptide: MVGCATSMWNRCLT
modifications: cysteine pairing not given here; also: fused to phage pIII, linker and fusion site not given here
notes: as for B2
With B4 the “CD28 scFv signal” value [2] was 0.77 and the “CD28 scFv signal in presence of CD28” value [3] was 0.746.

B5: Phage-254 (peptide)
peptide: MDWCPRYLWSECFA
modifications: cysteine pairing not given here; also: fused to phage pIII, linker and fusion site not given here
notes: as for B2
For B5, the “CD28 scFv signal” value [2] was 2.71 and the “CD28 scFv signal in presence of CD28” value [3] was 0.513.

B6: Phage-264 (peptide)
peptide: MDWCPRHLWHVCFN
modifications: cysteine pairing not given here; also: displayed on phage pIII, linker not given here
notes: as for B2
In the case of B6, the “CD28 scFv signal” value [2] is reported as 2.67 and the “CD28 scFv signal in presence of CD28” value [3] is reported as 0.636.

B7: Phage-255 (peptide)
peptide: MDWCPRHLWSVCFN
modifications: cysteine pairing not given here; also: fused to phage pIII, linker and fusion site not given here
notes: as for B2
In the case of B7, the “CD28 scFv signal” value [2] is reported as 2.65 and the “CD28 scFv signal in presence of CD28” value [3] is reported as 0.825.

B8: Phage-256 (peptide)
peptide: MDWCPFDLWHVCYN
modifications: cysteine pairing not given here; also: fused to phage pIII, linker and fusion site not given here
notes: as for B2
For B8, the “CD28 scFv signal” value [2] was 2.6 and the “CD28 scFv signal in presence of CD28” value [3] was 0.651.

B9: Phage-257 (peptide)
peptide: MDWCPRFLWHECFN
modifications: cysteine pairing not given here; also: fused to phage pIII, linker and fusion site not given here
notes: as for B2
B9 was tested, and the “CD28 scFv signal” value [2] was 2.59 and the “CD28 scFv signal in presence of CD28” value [3] was 0.351.

B10: Phage-259 (peptide)
peptide: MDWCPRNLWHACFN
modifications: cysteine pairing not given here; also: fused to phage pIII, linker and fusion site not given here
notes: as for B2
With B10 the “CD28 scFv signal” value [2] was 1.57 and the “CD28 scFv signal in presence of CD28” value [3] was 0.112.

B11: Phage-261 (peptide)
peptide: MDWCPMFMWHECFN
modifications: cysteine pairing not given here; also: displayed on phage as pIII fusion, fusion limits and linker not given here
notes: as for B2
In the case of B11, the “CD28 scFv signal” value [2] is reported as 2.23 and the “CD28 scFv signal in presence of CD28” value [3] is reported as 1.04.

B12: Phage-262 (peptide)
peptide: MYWCATSMWNRCFV
modifications: cysteine pairing not given here; also: displayed on phage pIII, linker not given here
notes: as for B2
With B12 the “CD28 scFv signal” value [2] was 0.398 and the “CD28 scFv signal in presence of CD28” value [3] was 0.415.

B13: Phage-263 (peptide)
peptide: MDWCPRHMWHECFA
modifications: cysteine pairing not given here; also: displayed on phage pIII, linker not given here
notes: as for B2
In the case of B13, the “CD28 scFv signal” value [2] is reported as 2.52 and the “CD28 scFv signal in presence of CD28” value [3] is reported as 0.298.

B14: Phage-266 (peptide)
peptide: VTSCPTTMWNRCFS
modifications: cysteine pairing not given here; also: displayed on bacteriophage as fusion to pIII, fusion limits and linker not given here
notes: as for B2
In the case of B14, the “CD28 scFv signal” value [2] is reported as 1.22 and the “CD28 scFv signal in presence of CD28” value [3] is reported as 0.546.

B15: Phage-267 (peptide)
peptide: MTLCLSVDLVHCWY
modifications: cysteine pairing not given here; also: displayed on bacteriophage as fusion to pIII, fusion limits and linker not given here
notes: as for B2
For B15, the “CD28 scFv signal” value [2] was 0.632 and the “CD28 scFv signal in presence of CD28” value [3] was 0.093.

B16: Phage-269 (peptide)
peptide: DSFCTWSAWQECGR
modifications: cysteine pairing not given here; also: phage-displayed pIII fusion, pIII and linker not given here
notes: as for B2
B16 was tested, and the “CD28 scFv signal” value [2] was 0.13 and the “CD28 scFv signal in presence of CD28” value [3] was 0.101.

B17: Phage-270 (peptide)
peptide: MDWCPRDFWAFCFF
modifications: cysteine pairing not given here; also: displayed on phage as fusion to pIII, fusion limits and linker not given here
notes: as for B2
For B17, the “CD28 scFv signal” value [2] was 2.37 and the “CD28 scFv signal in presence of CD28” value [3] was 0.655.

B18: Phage-272 (peptide)
peptide: MVWCMSVGWAVCLN
modifications: cysteine pairing not given here; also: displayed on phage as fusion to pIII, fusion limits and linker not given here
notes: as for B2
With B18 the “CD28 scFv signal” value [2] was 0.271 and the “CD28 scFv signal in presence of CD28” value [3] was 0.284.

B19: Phage-274 (peptide)
peptide: WVSCLRHHWLECFH
modifications: cysteine pairing not given here; also: displayed on phage as fusion to pIII, fusion limits and linker not given here
notes: as for B2
With B19 the “CD28 scFv signal” value [2] was 0.723 and the “CD28 scFv signal in presence of CD28” value [3] was 0.858.

B20: Phage-275 (peptide)
peptide: MDWCPRDHWVDCYS
modifications: cysteine pairing not given here; also: displayed on phage as fusion to pIII, fusion limits and linker not given here
notes: as for B2
B20 was tested, and the “CD28 scFv signal” value [2] was 0.671 and the “CD28 scFv signal in presence of CD28” value [3] was 0.092.

B21: Phage-276 (peptide)
peptide: IDWCPKIHWDLCYF
modifications: cysteine pairing not given here; also: displayed on phage as fusion to pIII, fusion limits and linker not given here
notes: as for B2
B21 was tested, and the “CD28 scFv signal” value [2] was 0.295 and the “CD28 scFv signal in presence of CD28” value [3] was 0.082.

B22: Phage-277 (peptide)
peptide: MDWCPRSHWSECFS
modifications: cysteine pairing not given here; also: displayed on phage as fusion to pIII, fusion limits and linker not given here
notes: as for B2
In the case of B22, the “CD28 scFv signal” value [2] is reported as 0.253 and the “CD28 scFv signal in presence of CD28” value [3] is reported as 0.087.

B23: Phage-279 (peptide)
peptide: MDWCPRYLWAECFN
modifications: cysteine pairing not given here; also: displayed on phage as fusion to pIII, fusion limits and linker not given here
notes: as for B2
For B23, the “CD28 scFv signal” value [2] was 2.74 and the “CD28 scFv signal in presence of CD28” value [3] was 1.14.

For MAWCPRILWHQCFN [Phage-381], the “CD28 scFv signal” value [4] was 0.322 and the “CD28 scFv signal in presence of CD28” value [5] was 0.129.

With ITWCPTSLWNRCLV [Phage-382] the “CD28 scFv signal” value [4] was 0.242 and the “CD28 scFv signal in presence of CD28” value [5] was 0.089.

In the case of LAGCQRDLATVCVI [Phage-383], the “CD28 scFv signal” value [4] is reported as 0.229 and the “CD28 scFv signal in presence of CD28” value [5] is reported as 0.116.

With IMWCPTSLWNRCVT [Phage-384] the “CD28 scFv signal” value [4] was 0.161 and the “CD28 scFv signal in presence of CD28” value [5] was 0.129.

ILRCQMNLQDECLN [Phage-385] was tested, and the “CD28 scFv signal” value [4] was 0.083 and the “CD28 scFv signal in presence of CD28” value [5] was 0.077.

NHWCPTTLWNRCVA [Phage-386] was tested, and the “CD28 scFv signal” value [4] was 0.078 and the “CD28 scFv signal in presence of CD28” value [5] was 0.093.

With MDWCPRHLWLECFN [Phage-387] the “CD28 scFv signal” value [4] was 0.066 and the “CD28 scFv signal in presence of CD28” value [5] was 0.074.

B24: Phage-416 clonal phage peptide MDWCPSNMWNECFF (peptide)
peptide: MDWCPSNMWNECFF
notes: tested as crude clonal phage supernatant
With B24 the “CD28 scFv signal” value [6] was 0.983.

B25: Phage-419 clonal phage peptide VDWCPAHMWNECYN (peptide)
peptide: VDWCPAHMWNECYN
notes: as for B24
For B25, the “CD28 scFv signal” value [6] was 0.664.
